# Test results published in patent US20110318339A1.
# Assays:
# [1] = biological target: rHuman P-Cadherin/Fc Chimera, CF (Cat# 861-PC) (human) (UniProt P22223); assay: Multispot ECL; Fab 170 nM
# [2] = biological target: rHuman EGF R/Fc Chimera, CF (Cat# 344-ER) (human) (UniProt P00533); assay: Multispot ECL; Fab 170 nM
# [3] = biological target: rHuman Notch-1/Fc Chimera, CF (Cat# 3647-TK) (human) (UniProt P46531); assay: Multispot ECL; Fab 170 nM
# [4] = biological target: rHuman Erythropoietin R/Fc Chimera, CF (Cat# 963-ER) (human) (UniProt P19235); assay: Multispot ECL; Fab 170 nM
# Sequence of rHuman Erythropoietin R/Fc Chimera, CF (Cat# 963-ER) (human) (P19235 25-250, change not shown): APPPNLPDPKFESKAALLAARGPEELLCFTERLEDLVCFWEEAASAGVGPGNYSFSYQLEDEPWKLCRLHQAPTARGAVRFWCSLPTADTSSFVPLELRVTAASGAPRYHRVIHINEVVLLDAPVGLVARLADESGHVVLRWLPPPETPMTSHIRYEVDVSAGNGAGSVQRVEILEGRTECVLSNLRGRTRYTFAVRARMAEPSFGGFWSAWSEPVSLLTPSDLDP
# [5] = biological target: rHuman HGF R/c-MET/Fc Chimera, CF (Cat# 358-MT/CF) (human) (UniProt P08581); assay: Multispot ECL; Fab 170 nM
# [6] = biological target: rHuman IGF-1 sR, (IGF-1 sR), CF (Cat# 391-GR) (human) (UniProt P08069); assay: Multispot ECL; Fab 170 nM
# [7] = biological target: rHuman ErbB2/Fc Chimera, CF (Cat# 1129-ER) (human) (UniProt P04626); assay: Multispot ECL; Fab 170 nM
# [8] = biological target: rHuman CD44/Fc Chimera, CF (Cat# 3660-CD) (human) (UniProt P16070); assay: Multispot ECL; Fab 170 nM
# [9] = biological target: rHuman P-Cadherin/Fc Chimera, CF (Cat# 861-PC) (human) (UniProt P22223); assay: Multispot ECL; Fab 85.0 nM
# [10] = biological target: rHuman EGF R/Fc Chimera, CF (Cat# 344-ER) (human) (UniProt P00533); assay: Multispot ECL; Fab 85.0 nM
# [11] = biological target: rHuman Notch-1/Fc Chimera, CF (Cat# 3647-TK) (human) (UniProt P46531); assay: Multispot ECL; Fab 85.0 nM
# [12] = biological target: rHuman Erythropoietin R/Fc Chimera, CF (Cat# 963-ER) (human) (UniProt P19235); assay: Multispot ECL; Fab 85.0 nM
# [13] = biological target: rHuman HGF R/c-MET/Fc Chimera, CF (Cat# 358-MT/CF) (human) (UniProt P08581); assay: Multispot ECL; Fab 85.0 nM
# [14] = biological target: rHuman IGF-1 sR, (IGF-1 sR), CF (Cat# 391-GR) (human) (UniProt P08069); assay: Multispot ECL; Fab 85.0 nM
# [15] = biological target: rHuman ErbB2/Fc Chimera, CF (Cat# 1129-ER) (human) (UniProt P04626); assay: Multispot ECL; Fab 85.0 nM
# [16] = biological target: rHuman CD44/Fc Chimera, CF (Cat# 3660-CD) (human) (UniProt P16070); assay: Multispot ECL; Fab 85.0 nM
# [17] = biological target: rHuman P-Cadherin/Fc Chimera, CF (Cat# 861-PC) (human) (UniProt P22223); assay: Multispot ECL; Fab 340 nM
# [18] = biological target: rHuman EGF R/Fc Chimera, CF (Cat# 344-ER) (human) (UniProt P00533); assay: Multispot ECL; Fab 340 nM
# [19] = biological target: rHuman Notch-1/Fc Chimera, CF (Cat# 3647-TK) (human) (UniProt P46531); assay: Multispot ECL; Fab 340 nM
# [20] = biological target: rHuman Erythropoietin R/Fc Chimera, CF (Cat# 963-ER) (human) (UniProt P19235); assay: Multispot ECL; Fab 340 nM
# [21] = biological target: rHuman HGF R/c-MET/Fc Chimera, CF (Cat# 358-MT/CF) (human) (UniProt P08581); assay: Multispot ECL; Fab 340 nM
# [22] = biological target: rHuman IGF-1 sR, (IGF-1 sR), CF (Cat# 391-GR) (human) (UniProt P08069); assay: Multispot ECL; Fab 340 nM
# [23] = biological target: rHuman ErbB2/Fc Chimera, CF (Cat# 1129-ER) (human) (UniProt P04626); assay: Multispot ECL; Fab 340 nM
# [24] = biological target: rHuman CD44/Fc Chimera, CF (Cat# 3660-CD) (human) (UniProt P16070); assay: Multispot ECL; Fab 340 nM
# [25] = biological target: rHuman P-Cadherin/Fc Chimera, CF (Cat# 861-PC) (human) (UniProt P22223); assay: Multispot ECL; Fab […]
# [26] = biological target: rHuman EGF R/Fc Chimera, CF (Cat# 344-ER) (human) (UniProt P00533); assay: Multispot ECL; Fab […]
# [27] = biological target: rHuman Notch-1/Fc Chimera, CF (Cat# 3647-TK) (human) (UniProt P46531); assay: Multispot ECL; Fab […]
# [28] = biological target: rHuman Erythropoietin R/Fc Chimera, CF (Cat# 963-ER) (human) (UniProt P19235); assay: Multispot ECL; Fab […]
# [29] = biological target: rHuman HGF R/c-MET/Fc Chimera, CF (Cat# 358-MT/CF) (human) (UniProt P08581); assay: Multispot ECL; Fab […]
# [30] = biological target: rHuman IGF-1 sR, (IGF-1 sR), CF (Cat# 391-GR) (human) (UniProt P08069); assay: Multispot ECL; Fab […]
# [31] = biological target: rHuman ErbB2/Fc Chimera, CF (Cat# 1129-ER) (human) (UniProt P04626); assay: Multispot ECL; Fab […]
# [32] = biological target: rHuman CD44/Fc Chimera, CF (Cat# 3660-CD) (human) (UniProt P16070); assay: Multispot ECL; Fab […]
substance,measurement,setting,value
Fab VH4-34_IGHD7-27*01_IGHJ4*01 & V4-6_IGLJ4*01,ECL signal,[1],744
same,ECL signal,[2],826
same,ECL signal,[3],816
same,ECL signal,[4],790
same,ECL signal,[5],757
same,ECL signal,[6],832
same,ECL signal,[7],964
same,ECL signal,[8],660
same,ECL signal,[9],709
same,ECL signal,[10],1000
same,ECL signal,[11],780
same,ECL signal,[12],817
same,ECL signal,[13],998
same,ECL signal,[14],891
same,ECL signal,[15],844
same,ECL signal,[16],693
same,ECL signal,[17],1160
same,ECL signal,[18],1210
same,ECL signal,[19],1210
same,ECL signal,[20],1260
same,ECL signal,[21],1240
same,ECL signal,[22],1040
same,ECL signal,[23],1230
same,ECL signal,[24],959
same,ECL signal,[25],421
same,ECL signal,[26],528
same,ECL signal,[27],649
same,ECL signal,[28],494
same,ECL signal,[29],607
same,ECL signal,[30],646
same,ECL signal,[31],866
same,ECL signal,[32],522
